This passage reports pKa results from PMC6987182.

This data set relates to Asp97. The experiment in a line: UV-vis. As to conditions: 150 mM NaCl; 50 mM Tris-HCl; Dark/ground state, retinal-bound, detergent-solubilised purified protein.

Regarding “HSG119 rhodopsin (blue-light absorbing proteorhodopsin homologue) (uncultured marine bacterium (metagenome sample HSG070119-03, seawater near King Sejong Station, King George Island, Antarctica))”, the pKa result is “around 5.8 and 8.0”.
